This is an account of results in article PMC4349392.

One may read the Kd as the constant that tells how readily two partners part at equilibrium.

This experiment addresses YFP-tagged CaV1.3 IQ domain, prototypic (IQDY) (rat). Briefly: FRET or BRET. Background: Bioluminescence resonance energy transfer reports proximity on the nanometre scale.

In turn, “CFP-tagged calmodulin, wild type (CFP-CaMWT) (from UniProt P0DP29 1-149) (natural protein)” had a K (a,EFF) (reciprocal D (free) units) of 0.000588, a Ka of 1.8e+07 M⁻¹ and a Kd of 55 nM.
